B1: Splicing factor 1 (Homo sapiens), Q15637 (parent)
chain: MATGANATPLDFPSKKRKRSRWNQDTMEQKTVIPGMPTVIPPGLTREQERAYIVQLQIEDLTRKLRTGDLGIPPNPEDRSPSPEPIYNSEGKRLNTREFRTRKKLEEERHNLITEMVALNPDFKPPADYKPPATRVSDKVMIPQDEYPEINFVGLLIGPRGNTLKNIEKECNAKIMIRGKGSVKEGKVGRKDGQMLPGEDEPLHALVTANTMENVKKAVEQIRNILKQGIETPEDQNDLRKMQLRELARLNGTLREDDNRILRPWQSSETRSITNTTVCTKCGGAGHIASDCKFQRPGDPQSAQDKARMDKEYLSLMAELGEAPVPASVGSTSGPATTPLASAPRPAAPANNPPPPSLMSTTQSRPPWMNSGPSESRPYHGMHGGGPGGPGGGPHSFPHPLPSLTGGHGGHPMQHNPNGPPPPWMQPPPPPMNQGPHPPGHHGPPPMDQYLGSTPVGSGVYRLHQGKGMMPPPPMGMMPPPPPPPSGQPPPPPSGPLPPWQQQQQQPPPPPPPSSSMASSTPLPWQQNTTTTTTSAGTGSIPPWQQQQAAAAASPGAPQMQGNPTMVPLPPGVQPPLPPGAPPPPPPPPPGSAGMMYAPPPPPPPPMDPSNFVTMMGMGVAGMPPFGMPPAPPPPPPQN
B2: Splicing factor U2AF 65 kDa subunit (Homo sapiens), P26368 (parent)
chain: MSDFDEFERQLNENKQERDKENRHRKRSHSRSRSRDRKRRSRSRDRRNRDQRSASRDRRRRSKPLTRGAKEEHGGLIRSPRHEKKKKVRKYWDVPPPGFEHITPMQYKAMQAAGQIPATALLPTMTPDGLAVTPTPVPVVGSQMTRQARRLYVGNIPFGITEEAMMDFFNAQMRLGGLTQAPGNPVLAVQINQDKNFAFLEFRSVDETTQAMAFDGIIFQGQSLKIRRPHDYQPLPGMSENPSVYVPGVVSTVVPDSAHKLFIGGLPNYLNDDQVKELLTSFGPLKAFNLVKDSATGLSKGYAFCEYVDINVTDQAIAGLNGMQLGDKKLLVQRASVGAKNATLVSPPSTINQTPVTLQVPGLMSSQVQMGGHPTEVLCLMNMVLPEELLDDEEYEEIVEDVRDECSKYGLVKSIEIPRPVDGVEVPGCGKIFVEFTSVFDCQKAMQGLTGRKFANRVVVTKYCDPDSYHRRDFW
partner: B1 chain

Variants of B1 are the subject of one test. Conditions: with U2AF2, P26368.
On to K15E, for which the “effect of a mutation on the interaction” value was “decreasing interaction”. On the same count and under the same terms, as for Q24A, the entry is “with no effect”; as for K15E;K16E;R17D, “disrupting interaction”; as for R19E, “with no effect”. Regarding K16A;R17A;K18A, the “effect of a mutation on the interaction” value is given as “with no effect”.

W22A: the “effect of a mutation on the interaction” value is “disrupting interaction”. In the case of W22F, the “effect of a mutation on the interaction” value is on record as “with no effect”. The same measure, in the same setting: next, K16E;R17D;K18E: “disrupting interaction”; N23A: “with no effect”. Still for that read-out and setting: next, R17E: “with no effect”; R21D: “disrupting interaction”. Same read-out and setting: next, R21K: “with no effect”.

Variants of B2 are the subject of a further test. Particulars: with sf01_human SF1, Q15637.
With E387G;E388A, the “effect of a mutation on the interaction” value was “with no effect”.

Turning to D391R;D392R;E393K;E394K, the “effect of a mutation on the interaction” value is reported as “disrupting interaction”. Same read-out and setting: as for E396K;E397K, the entry is “disrupting interaction”; as for E387R;E388R, “disrupting interaction”. On the same count and under the same terms, next, E396A;E397A: “with no effect”; E396G;E397A: “disrupting interaction”; F454Y: “decreasing interaction”. On the same count and under the same terms, as for F454A, the entry is “decreasing interaction”; as for D391A;D392A;E393A;E394A, “decreasing interaction”.
